# Data: patent US20190276499A1, “Protein VII Fragments and Methods of Use Thereof for the Treatment of Inflammatory Disorders” (priority 2016, published 2019)
# T1: HMGB2 (Homo sapiens, UniProt P26583)
# T1 construct: endogenous in cells; host or cells: THP-1 (PMA-differentiated)
# T1 sequence (P26583 1-209): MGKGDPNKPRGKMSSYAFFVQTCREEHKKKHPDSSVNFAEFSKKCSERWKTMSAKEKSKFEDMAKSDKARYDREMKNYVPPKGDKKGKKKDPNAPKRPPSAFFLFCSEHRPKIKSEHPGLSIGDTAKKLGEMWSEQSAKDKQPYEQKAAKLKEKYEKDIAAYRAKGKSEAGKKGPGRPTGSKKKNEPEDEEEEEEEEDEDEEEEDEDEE
# T2: HMGB1 (Homo sapiens, UniProt P09429)
# T2 sequence (P09429 1-215): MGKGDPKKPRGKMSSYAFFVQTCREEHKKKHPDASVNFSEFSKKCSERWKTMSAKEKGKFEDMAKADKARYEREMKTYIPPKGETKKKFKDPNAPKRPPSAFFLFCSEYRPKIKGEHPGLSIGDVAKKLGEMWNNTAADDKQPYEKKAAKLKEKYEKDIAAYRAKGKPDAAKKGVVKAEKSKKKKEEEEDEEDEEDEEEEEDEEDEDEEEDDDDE
# B1: protein VII: mature protein VII of human adenovirus type 5 (SEQ ID NO:1), expressed in cells, mostly with C-terminal HA tag (protein)
# chain: AKKRSDQHPVRVRGHYRAPWGAHKRGRTGRTTVDDAIDAVVEEARNYTPTPPPVSTVDAAIQTVVRGARRYAKMKRRRRRVARRHRRRPGTAAQRAAAALLNRARRTGRRAAMRAARRLAAGIVTVPPRSRRRAAAAAAAAISAMTQGRRGNVYWVRDSVSGLRVPVRTRPPRN
# modifications: C-terminal HA tag; Human adenovirus 5
# Columns and labels:
# Assay type in all cases: cell-based
# [1] = biological target: T1, HMGB2; assay: Release assay of HMGB2 in THP-1 cells; details: PMA-treated THP-1 cells, LPS plus nigericin
# Protocol: THP-1 cells were seeded at a density of 2×10^5 cells per well in a 24-well plate, and stimulated into macrophage-like cells by addition of 10 ng/mL PMA for 48 hours. Cells were washed in PBS and transduced with recombinant adenovirus vectors expressing only GFP or protein VII-GFP such that >90% of cells were GFP positive. At 48 hours post transduction, cells were washed and 200 μL of serum free RPMI was added. To stimulate the inflammasome, LPS (Sigma-Aldrich L2880) with a final concentration of 0.5 μg/mL was added to wells and incubated for 2 hours, then nigericin (Sigma-Aldrich N7143) was added with a final concentration of 10 μM for 1 hour. Supernatants were collected and proteins precipitated overnight at 4° C. with a final concentration of 20% trichloroacetic acid (Sigma), washed with acetone, dried, and resuspended in 1×sample buffer with reducing agent (Invitrogen). For ELISA analysis, supernatants were harvested directly and HMGB1 content was detected by the manufacturer's instructions (Chondrex 6010). Cells were also harvested by the addition of 1×sample buffer with reducing agent (Invitrogen) and boiled. Supernatants and lysates were analyzed together by western blot.
# [2] = biological target: T1, HMGB2; assay: Salt fractionation of nuclei, western blot for HMGB2; details: upon protein VII expression
# Protocol: Salt fractionation of nuclei was adapted from established protocols (Zaret, K. (2005) Micrococcal nuclease analysis of chromatin structure. Curr. Protoc. Mol., Biol. Chapter 21, Unit 21.1; Teves et al. (2012) Methods Mol. Biol., 833:421-432). Briefly, 2-4×10^7 cells were collected and resuspended in 2 mL of ice-cold buffer I (0.32 M sucrose, 60 mM KCl, 15 mM NaCl, 5 mM MgCl2, 0.1 mM EGTA, 15 mM Tris, pH 7.5, 0.5 mM DTT, 0.1 mM PMSF and protease inhibitor cocktail from Roche). To dissolve the plasma membrane, 2 mL ice-cold buffer I supplemented with 0.1% IGEPAL were added and samples were incubated on ice for 10 minutes. The 4 mL of nuclei was layered on 8 mL of ice-cold buffer II (1.2 M sucrose, 60 mM KCl, 15 mM NaCl, 5 mM MgCl2, 0.1 mM EGTA, 15 mM Tris, pH 7.5, 0.5 mM DTT, 0.1 mM PMSF and protease inhibitor cocktail from Roche) and centrifuged for 20 minutes at 10,000×g and 4° C. The pelleted nuclei were resuspended in 400 μL buffer III (10 mM Tris pH 7.4, 2 mM MgCl2, 0.1 mM PMSF) supplemented with 5 mM CaCl2 and the DNA was digested to mononucleosomes by addition of 1 unit of MNase (Sigma-Aldrich, N3755). […] The final pellet was resuspended in 400 μL ddH2O and all samples were analyzed together by western blot. An aliquot of each supernatant was set aside for DNA purification using a PCR purification kit (Qiagen) and analyzed by agarose gel electrophoresis. […]
# [3] = biological target: T2, HMGB1; assay: Salt fractionation of nuclei, western blot for HMGB1; parameters: endogenous in cells; host or cells: A549 (also 293 / 293-Cre in the salt fractionation); details: for Chromatin association of HMGB1 (retention in high salt fractions): A549 cells, doxycycline-induced expression
# Protocol: Salt fractionation of nuclei was adapted from established protocols (Zaret, K. (2005) Micrococcal nuclease analysis of chromatin structure. Curr. Protoc. Mol., Biol. Chapter 21, Unit 21.1; Teves et al. (2012) Methods Mol. Biol., 833:421-432). Briefly, 2-4×10^7 cells were collected and resuspended in 2 mL of ice-cold buffer I (0.32 M sucrose, 60 mM KCl, 15 mM NaCl, 5 mM MgCl2, 0.1 mM EGTA, 15 mM Tris, pH 7.5, 0.5 mM DTT, 0.1 mM PMSF and protease inhibitor cocktail from Roche). To dissolve the plasma membrane, 2 mL ice-cold buffer I supplemented with 0.1% IGEPAL were added and samples were incubated on ice for 10 minutes. The 4 mL of nuclei was layered on 8 mL of ice-cold buffer II (1.2 M sucrose, 60 mM KCl, 15 mM NaCl, 5 mM MgCl2, 0.1 mM EGTA, 15 mM Tris, pH 7.5, 0.5 mM DTT, 0.1 mM PMSF and protease inhibitor cocktail from Roche) and centrifuged for 20 minutes at 10,000×g and 4° C. The pelleted nuclei were resuspended in 400 μL buffer III (10 mM Tris pH 7.4, 2 mM MgCl2, 0.1 mM PMSF) supplemented with 5 mM CaCl2 and the DNA was digested to mononucleosomes by addition of 1 unit of MNase (Sigma-Aldrich, N3755). The reaction was incubated at 37° C. for 30 minutes and then stopped by addition of 25 μL of 0.1M EGTA. The samples were centrifuged for 10 minutes, 350×g, at 4° C., and supernatants were set aside for western blot analysis. The pellet was resuspended in 400 μL of buffer IV (70 mM NaCl, 10 mM Tris pH 7.4, 2 mM MgCl2, 2 mM EGTA, 0.1% Triton X-100, 0.1 mM PMSF) with 80 mM salt and rotated for 30 minutes at 4° C. The sample was centrifuged for 10 minutes at 350×g, 4° C., and the supernatant collected for western blot analysis. This step was repeated for salt concentrations in buffer IV of 150 mM, 300 mM and 600 mM. The final pellet was resuspended in 400 μL ddH2O and all samples were analyzed together by western blot. An aliquot of each supernatant was set aside for DNA purification using a PCR purification kit (Qiagen) and analyzed by agarose gel electrophoresis. […]
# [4] = biological target: T2, HMGB1; assay: Immunofluorescence of HMGB1 localization in A549 cells; parameters: endogenous in cells; host or cells: A549
# Protocol: Cells were grown on glass coverslips in 24-well plates and either infected or induced with doxycycline (0.2 μg/mL). Cells were harvested for immunofluorescence at the indicated time points, washed in phosphate-buffered saline (PBS), fixed in 4% paraformaldehyde for 15 minutes and post-fixed with 100% ice-cold methanol for 5 minutes. Coverslips were then blocked and stained as described (Lilley et al. (2011) PLoS Pathog., 7:e1002084) and mounted using ProLong Gold Antifade Reagent (Life Technologies). Immunofluorescence was visualized using a Zeiss LSM Confocal microscope and ZEN 2011 software. Images were processed using ImageJ and assembled with Adobe CS6. All scale bars show in the Figures are 10 μm unless otherwise stated.
molecule,measurement,setting,value
B1,HMGB2 in supernatants,[1],reduced levels
same,Chromatin association of HMGB2 (fractionated nuclei),[2],Increased chromatin association
same,Retention of HMGB1 in the 600 mM high-salt fraction,[3]; A549 cells transfected 24 hours with GFP-tagged constructs,retention of HMGB1
same,Chromatin association of HMGB1 (retention in high salt fractions),[3],Increased chromatin association
same,Chromatin association of HMGB1 (retention in high salt fractions),[3]; listed as Ad5 protein VII,retention in the high salt chromatin fractions
same,Relocalization of HMGB1 (immunofluorescence),[4],relocalization of HMGB1
